Usually stoichiometry N stands for the number of molecules, sites or subunits per partner or assembly.

For data set [1], the target named is T1, ApoE4 (lipid-free) (human, UniProt P02649 19-317, Cys112 to Arg112).
T1 construct: Apolipoprotein E, isoform ApoE4 (Arg112/Arg158), human; printed as a 299-residue lipoprotein; the methods call the ApoE isoforms full-length; Natural allele APOE e4; differs from ApoE3 only at position 112; also called Apolipoprotein E4; lipid-free ApoE4; source: bought: AlexoTech AB (recombinant), then size-exclusion chromatography (Superdex 200)
Put plainly: cross-linking; native proteins, 4 uM S100A9 and 4 uM ApoE isoform (1:1), preincubated at 4 C overnight; glutaraldehyde at 10- and 100-fold molar excess, 30 min at 4 C, quenched with Tris; SDS-PAGE and Western blot with anti-S100A9 polyclonal antibodies. As to conditions: both partners purified. (In general: Immunoblotting shows a protein as a band on a membrane.)

Data set [2] concerns the target T2, ApoE3 (lipid-free) (human, UniProt P02649 19-317).
T2 construct: Apolipoprotein E, isoform ApoE3 (Cys112/Arg158), human; printed as a 299-residue lipoprotein; the methods call the ApoE isoforms full-length; PDB 2L7B (NMR structure of full-length ApoE3) was used for the modelling only; also called Apolipoprotein E3; lipid-free ApoE3; source: bought: AlexoTech AB (recombinant), then size-exclusion chromatography (Superdex 200)
Described as above. As to conditions: both partners purified.

Data set [3] concerns the molecule itself. Kind of data set: SDS-stable complex by Western blot of pellet and SEC fractions; 100 uM S100A9 with 5 uM lipid-free ApoE4, PBS, 42 C, 70 h (methods: 72 h); centrifuged 14,000 rpm 15 min; pellet and Superdex 200 peaks of the supernatant on SDS-PAGE and Western blot with anti-S100A9 polyclonal antibodies (Santa Cruz).
Data set [4] deals with the molecule itself. Put plainly: SDS-stable complex by SDS-PAGE and Western blot; 50 uM S100A9 with 2 uM lipid-free or lipidated ApoE isoform, PBS, 42 C, 70 h, non-stirring; reducing Laemmli buffer, 4-20% gel; Coomassie and Western blot with anti-S100A9 polyclonal antibody (Invitrogen).
In data set [5] the target is T3, ApoE4-DOPC (lipidated ApoE4) (human, UniProt P02649 19-317, Cys112 to Arg112).
T3 construct: Apolipoprotein E, isoform ApoE4 (Arg112/Arg158), human; printed as a 299-residue lipoprotein; 'Lipidated full-length ApoE isoforms'; source: bought: AlexoTech AB (recombinant)
The description is as above. As to conditions: both partners purified.

The target of data set [6] is T4, ApoE3-DOPC (lipidated ApoE3) (human, UniProt P02649 19-317).
T4 construct: Apolipoprotein E, isoform ApoE3 (Cys112/Arg158), human; printed as a 299-residue lipoprotein; 'Lipidated full-length ApoE isoforms'; also called DOPC-ApoE3; source: bought: AlexoTech AB (recombinant)
The data set is described as above. As to conditions: both partners purified.

The target of data set [7] is T2, ApoE3 (lipid-free). The data set is described as above. As to conditions: both partners purified.

“And” between values parts separate entries of the source, which are not always exact repeats. Identical values can stand only once.

T1 sequence (P02649 other isoform, or with tags, fused parts or gaps Cys112 to Arg112 | Cys112 to Arg112): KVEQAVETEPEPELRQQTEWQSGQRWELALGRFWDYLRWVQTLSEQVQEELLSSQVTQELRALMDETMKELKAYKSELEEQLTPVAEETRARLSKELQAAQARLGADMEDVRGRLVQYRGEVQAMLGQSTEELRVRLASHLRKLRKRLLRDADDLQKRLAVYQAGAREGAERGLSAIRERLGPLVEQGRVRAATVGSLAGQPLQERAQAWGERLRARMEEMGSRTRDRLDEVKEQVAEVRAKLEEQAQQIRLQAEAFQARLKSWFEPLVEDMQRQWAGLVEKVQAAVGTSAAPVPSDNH
T2 sequence (P02649 19-317): as the sequence (P02649 other isoform, or with tags, fused parts or gaps Cys112 to Arg112 | Cys112 to Arg112) above, with R112C counted along it
T3 sequence (P02649 other isoform, or with tags, fused parts or gaps Cys112 to Arg112 | Cys112 to Arg112): as the sequence (P02649 other isoform, or with tags, fused parts or gaps Cys112 to Arg112 | Cys112 to Arg112) above
T4 sequence (P02649 19-317): as the sequence (P02649 other isoform, or with tags, fused parts or gaps Cys112 to Arg112 | Cys112 to Arg112) above, with R112C counted along it

B1: S100A9 (natural protein)
chain: KMSQLERNIETIINTFHQYSVKLGHPDTLNQGEFKELVRKDLQNFLKKENKNEKVIEHIMEDLDTNADKQLSFEEFIMLMARLTWASHEKMHEGDEGPGHHHKPGLGEGTP
notes: 13 kDa monomer on the gels; PDB 5I8N (S100A9 dimer, NMR) was used for the modelling only; also called native S100A9; S100A9 amyloids; source: Escherichia coli, purified as described previously [57]; Superdex 200 gel filtration for the cross-linking
Consider B1, for which the “stoichiometry N” value in data set [1] was 1 S100A9 per ApoE and 2 S100A9 per ApoE; in data set [2], 2 S100A9 per ApoE; in data set [3], 2; in data set [4], 3; in data set [5], 1 S100A9 per ApoE; in data set [6] it was 1 S100A9 per ApoE. Moreover, the “stoichiometry N” value in data set [7] came out at 1 S100A9 per ApoE.
